{"source": "patent CN115806612A", "about": "(SHENZHEN KANGTI BIOMEDICAL TECH CO LTD, dated 2023)", "biological_target": "APP蛋白 (amyloid precursor protein, APP)", "sequence (chain, as listed by the source)": "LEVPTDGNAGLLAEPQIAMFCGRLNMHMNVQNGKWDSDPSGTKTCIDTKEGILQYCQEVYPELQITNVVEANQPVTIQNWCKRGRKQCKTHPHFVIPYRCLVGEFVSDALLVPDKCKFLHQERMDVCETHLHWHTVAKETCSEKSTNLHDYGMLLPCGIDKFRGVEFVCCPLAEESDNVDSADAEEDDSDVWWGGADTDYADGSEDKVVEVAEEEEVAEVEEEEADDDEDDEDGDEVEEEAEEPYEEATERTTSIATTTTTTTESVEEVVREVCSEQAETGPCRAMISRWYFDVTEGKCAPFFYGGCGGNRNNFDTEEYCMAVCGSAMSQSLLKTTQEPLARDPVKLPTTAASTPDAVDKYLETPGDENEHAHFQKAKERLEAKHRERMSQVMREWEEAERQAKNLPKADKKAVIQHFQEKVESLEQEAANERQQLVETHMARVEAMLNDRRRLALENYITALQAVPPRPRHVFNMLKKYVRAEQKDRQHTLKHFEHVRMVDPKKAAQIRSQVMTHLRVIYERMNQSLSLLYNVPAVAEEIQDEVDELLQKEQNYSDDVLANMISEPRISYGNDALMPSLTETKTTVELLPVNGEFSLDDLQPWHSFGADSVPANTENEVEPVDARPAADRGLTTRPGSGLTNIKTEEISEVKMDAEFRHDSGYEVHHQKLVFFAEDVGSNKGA", "test": "SPR"}
{"binder": "纳米抗体P2-10C (anti-APP nanobody P2-10C) (VHH, Monovalent alpaca VHH expressed from pET22b in E. coli BL21 and purified on Ni resin and by size exclusion; also called 抗APP的纳米抗体; 抗APP单域重链抗体) VHH: DVQLQESGGGLVQPGGSLRLSCAASGIIFSGYYMSWVRQAPGKGPEWVSSINPSGSSTRYADSVKGRFTISRDNAKNTVYLQMYSLKPEDTALYYCSRSRDGLGDVRGQGTQVTVSS", "values": [{"measurement": "Kd", "result": 70, "unit": "nM"}, {"measurement": "koff", "result": 0.00921, "unit": "s⁻¹"}, {"measurement": "kon", "result": 130000, "unit": "M⁻¹ s⁻¹"}]}
